Data reported in US20140079722A1, “EXTRACELLULAR TARGETED DRUG CONJUGATES” (CENTROSE, LLC, priority 2011, published 2014).
Ends that are not written are not given here.

How the values were obtained:
A549 NSCLC cells = assay: In vitro normal cell cytotoxicity study, carcinoma comparator line; assay type: cell-based; conditions: Homo sapiens, A549, 72 h
Experimental: In vitro normal cell cytotoxicity. The in vitro cytotoxic activity of M53-PEG24-CEN09-106, PEG24-CEN09-106, M53-PEG24-CEN-319, PEG24-CEN-319, proscillaridin and digitoxin against dysadherin positive primary normal human cells and a dysadherin positive human non-small cell lung carcinoma (NSCLC) cell line were tested and compared. The cells used were primary human renal epithelial cells (HREpC), primary human umbilical vein endothelial cells (HUVEC), primary human umbilical artery endothelial cells (HUAEC), and the A549 NSCLC cells. The primary cells were obtained from PromoCell GmbH, Heidelberg, Germany, and the NSCLC cell line A549 was obtained from ATCC. Primary renal epithelial cells were grown in Renal Epithelial Cell Growth Medium 2 (PromoCell GmbH, Heidelberg, Germany). Primary endothelial cells were grown in Endothelial Cell Growth Medium 2 (PromoCell GmbH, Heidelberg, Germany). […] After 72 hrs of exposure to agent, cell viability was evaluated using the Cell Titer-Glo Luminescent Cell Viability Assay (Promega, Madison, Wis.) according to the manufacturer's instructions. Luminescence measurements were performed using a Wallac Victor^2 Model 1420-041 assay plate reader (Perkin Elmer, Gaithersburg, Md.). EC50 values for each test agent were determined using GraphPad Prism 5 software.

[1] = system: primary human renal epithelial cells (HREpC); assay: In vitro normal cell cytotoxicity; assay type: cell-based; conditions: 72 h
Experimental: (§1) In vitro normal cell cytotoxicity. The in vitro cytotoxic activity of M53-PEG24-CEN09-106, PEG24-CEN09-106, M53-PEG24-CEN-319, PEG24-CEN-319, proscillaridin and digitoxin against dysadherin positive primary normal human cells and a dysadherin positive human non-small cell lung carcinoma (NSCLC) cell line were tested and compared. The cells used were primary human renal epithelial cells (HREpC), primary human umbilical vein endothelial cells (HUVEC), primary human umbilical artery endothelial cells (HUAEC), and the A549 NSCLC cells. The primary cells were obtained from PromoCell GmbH, Heidelberg, Germany, and the NSCLC cell line A549 was obtained from ATCC. Primary renal epithelial cells were grown in Renal Epithelial Cell Growth Medium 2 (PromoCell GmbH, Heidelberg, Germany). Primary endothelial cells were grown in Endothelial Cell Growth Medium 2 (PromoCell GmbH, Heidelberg, Germany). The NSCLC cell line was grown in RPMI-1640 (HyClone, Thermo Scientific) supplemented with 10% fetal bovine serum. HREpC, HUVEC, HUAEC, and A549 cells were plated in 384 well plates at 1250, 1875, 2500, and 1250 cells/well (respectively) and allowed to incubate for 24 hrs at 37° C., 5% CO2, and 100% humidity. Various concentrations of conjugates M53-PEG24-CEN09-106 and […] and PEG24-CEN09-106 and […] were added to the wells in a total volume of 5 uL of media and the plates were incubated for an additional 72 hrs. After 72 hrs of exposure to agent, cell viability was evaluated using the Cell Titer-Glo Luminescent Cell Viability Assay (Promega, Madison, Wis.) according to the manufacturer's instructions. Luminescence measurements were performed using a Wallac Victor^2 Model 1420-041 assay plate reader (Perkin Elmer, Gaithersburg, Md.). EC50 values for each test agent were determined using GraphPad Prism 5 software.

[2] = system: primary human umbilical vein endothelial cells (HUVEC); assay: In vitro normal cell cytotoxicity; assay type: cell-based; conditions: Homo sapiens, 72 h
Experimental: as §1

[3] = system: primary human umbilical artery endothelial cells (HUAEC); assay: In vitro normal cell cytotoxicity; assay type: cell-based; conditions: Homo sapiens, Endothelial cell, 72 h
Experimental: as §1

peptide CENP018 = biological target: T1, peptide CENP018 (human, not fully specified); assay: immunoaffinity chromatography on CENP018 coupled to SulfoLink resin
T1 construct: also called 17
T1 peptide: PTRAPDAVYTELQC

human dysadherin [4] = biological target: T2, human dysadherin (human, UniProt Q96DB9 22-178); assay: cell-based or functional assay
T2 chain: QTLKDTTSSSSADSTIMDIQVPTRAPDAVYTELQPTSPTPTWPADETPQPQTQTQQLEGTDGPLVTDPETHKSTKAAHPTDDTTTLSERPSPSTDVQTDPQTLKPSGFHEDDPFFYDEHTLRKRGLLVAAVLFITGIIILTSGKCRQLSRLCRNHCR

human dysadherin [5] = biological target: T2, human dysadherin; assay: cell-based or functional assay
human dysadherin [6] = biological target: T2, human dysadherin; assay: cell-based or functional assay
[7] = system: human cell lines H460, A549, A375, PANC1, and H929; assay: In vitro cancer cell cytotoxicity, statements over the cell line panel; assay type: cell-based; conditions: at the highest concentrations tested
Source text: (§2) EDCs were constructed using linker-ready agents PEG24-CEN09-106, PEG24-CEN09-107, PEG24-CEN10-110 and PEG24-CEN-319. As described in Example 1, linker-ready agent PEG24-CEN-319 contain digitoxigenin while the others contain scillarenin. Linker-ready agents PEG24-CEN09-106, PEG24-CEN09-107, PEG24-CEN10-110 all use different linkers. Specifically, PEG24-CEN09-106 and PEG24-CEN09-107 have different sugars in the linker, while PEG24-CEN10-110 contains a longer linker that includes a primary amine.
(§3) All of the cell lines below, except H520, express the Na,K-ATPase with the dysadherin subunit and so present the target of the antibody and drug in close proximity.

[8] = Pharmacokinetics and serum stability, antibody and drug specific ELISA; assay type: in vivo, Balb/c mice; conditions: Balb/c mice, EDC drug loading of 3
Experimental: The steroid drug pharmacokinetics of M53-PEG24-CEN09-106 were measured using the drug specific ELISA described below. The comparison between the two ELISA results (antibody concentrations minus drug concentrations) was used to determine the rate of drug breakdown and thus examine M53-PEG24-CEN09-106 stability.
Serum was isolated from blood samples acquired by retro-orbital blood collection at 1, 2, 4, 8, 16, 26, and 40 days post-injection. […] Plasma concentrations of the steroid drug in M53-PEG24-CEN09-106 were measured as follows. Antigen coated ELISA plates were washed (×3) with PBS pH 7, blocked 30 min with PBS pH 7 containing 1% NFDM (PBS+NFDM), and then washed (×3) with PBS, pH 7. Diluted serum samples and standard curves of M53-PEG24-CEN09-106 were prepared in the above blocking buffer and applied to coated wells, incubated 30 min at RT, and the wells were washed (×3) with PBS, pH 7. Biotinylated 25C2E3 (a monoclonal IgG1 antibody specific for the steroid portion of PEG24-CEN09-106 and conjugated to biotin [Thermo Scientific, PN 21911]) was diluted to 100 ng/mL in PBS+NFDM and added (100 uL) to each well, incubated 30 min at RT, and the wells washed (×3) with PBS, pH 7. PNPP at 1 mg/mL in 1M DEA with 50 mM MgCl2, pH 9.8 was added (100 uL per well), and the absorbance at 405 nm was determined using a Wallac Victor^2 Model 1420-041 assay plate reader (Perkin Elmer, Gaithersburg, Md.) every 5 minutes for a total of 6 reads.
For both ELISAs, absorbance values from known standards were plotted as absorbance over time, generating a linear slope for each concentration. The slopes generated were then plotted against the respective concentrations of the standards, creating a second linear plot. The absorbance values for the unknown serum samples were plotted over time, establishing a slope for unknown sample. The linear estimate from the slope versus concentration plot was then used to extrapolate concentrations for each unknown sample based on their slope.
To determine serum stability of the intact EDC (drug release from the antibody over time) in these samples, the ratio of the slopes of serum decay of the drug portion to the serum decay of the antibody portion were calculated.

[9] = Pharmacokinetics with varying drug loading (antigen binding ELISA); assay type: in vivo; conditions: unconjugated antibody, 1 mg/kg tail vein, SCID beige mice
Experimental: Serum was isolated from blood samples taken by retro-orbital blood collection at 1 hour, and 1, 2, 3, 6, and 15 days post-injection. Blood was collected into heparin coated tubes followed by centrifugation (5,000×g, 5 minutes) to isolate plasma.
Antigen capture plates that were prepared by coating wells of 96 well clear bottom ELISA plates with CENP018 (SEQ ID NO: 17) conjugated to BSA at 400 ng BSA-peptide conjugate per well in 100 uL of 200 mM carbonate buffer, pH 9.6 overnight at 4° C. Antigen coated ELISA plates were washed (×3) with PBS pH 7, blocked 30 min with PBS pH 7 containing 1% NFDM (PBS+NFDM), and then washed (×3) with PBS, pH 7. […] Goat anti-mouse IgG alkaline phosphatase (cat. number: A1418, Sigma-Aldrich, St. Louis, Mo.) was diluted 1:15,000 in PBS+NFDM and added (100 uL) to each well, incubated 30 min at RT, and the wells washed (×3) with PBS, pH 7. PNPP at 1 mg/mL in 1M DEA with 50 mM MgCl2, pH 9.8 was added (100 uL per well), and the absorbance at 405 nm was determined using a Wallac Victor^2 Model 1420-041 assay plate reader (Perkin Elmer, Gaithersburg, Md.) every 5 minutes for a total of 6 reads. Absorbance values from known antibody concentration standards were used to determine the concentration of antibody in the serum samples.

A375 = assay: In vitro cancer cell cytotoxicity (CellTiter-Glo cell viability); assay type: cell-based, human; conditions: A375 cells, 3 days incubation
Source text: as §2, §3

PANC1 = assay: as above; assay type: cell-based, human; conditions: PANC cells, 3 days incubation
Source text: as §2, §3

A549 = assay: as above; assay type: cell-based, human; conditions: A549 cells, 3 days incubation
Source text: as §2, §3

Molecule: C[C@H]1O[C@@H](O[C@H]2[C@@H](O)C[C@H](O[C@H]3[C@@H](O)C[C@H](O[C@H]4CC[C@@]5(C)[C@H](CC[C@@H]6[C@@H]5CC[C@]5(C)[C@@H](C7=CC(=O)OC7)CC[C@]65O)C4)O[C@@H]3C)O[C@@H]2C)C[C@H](O)[C@@H]1O [Digitoxin]
- EC50 (A549 NSCLC cells): 17 nM
- EC50 [1]: 135 nM
- EC50 [2]: 39 nM
- EC50 [3]: 47 nM

Molecule: C[C@@H]1O[C@@H](O[C@@H]2C=C3CC[C@@H]4[C@H](CC[C@]5(C)[C@@H](c6ccc(=O)oc6)CC[C@]45O)[C@@]3(C)CC2)[C@H](O)[C@H](O)[C@H]1O [Proscillaridin]
- EC50 (A549 NSCLC cells): 2.1 nM
- EC50 [1]: 10 nM
- EC50 [2]: 5.6 nM
- EC50 [3]: 5.6 nM

B1: anti-FXYD5 scFv003 (scFv)
scFv: ECQLVESGGGLVQPKGTLKLSCAASGFSFNTHAMNWVRQAPGKSLEWVARTMSKSNNYATYYADSVKDRFIISRDDSQSMLYLQMNNLKTEDTAMYYCVRDDPKRGMDYWGQGTSVTVSSGGGGSGGGGSGGGGSGIVMSQSPSSLAVSVGEKVTMSCKPSQSLLYSRNQKIYLAWYQQKPGQSPKLLIYWASTRESGVPDRFTGSGSGTDFTLIISSVRAEDLAVYYCQQYYNYPLTFGAGTKLELK
notes: Unconjugated scFv, purified from E. coli lysate on CENP018 resin; also called CENscFv003
- binding result (peptide CENP018): binds

B2: M53-PEG24-CEN09-106 (antibody, V domains shown)
VH: EVQLVESGGGLVQPKGTLKLSCAASGFSFNTHAMNWVRQAPGKSLEWVARTMSKSNNYATYYADSVKDRFIIRADDSQSMLYLQMNNLKTEDTAMYYCVRDDPKRGMDYWGQGTSVTVSS
VL: GIVMSQSPSSLAVSVGEKVTMSCKPSQSLLYSRNQKIYLAWYQQKPGQSPKLLIYWASTRESGVPDRFTGSGSGTDFTLIISSVRAEDLAVYYCQQYYNYPLTFGAGTKLELKR
modifications: PEG24-CEN09-106 on reduced cysteine thiols; positions not given; PEG24-CEN09-106 (scillarenin 4-amino-xyloside PEG24 maleimide linker-drug) on reduced cysteine thiols; positions not given
- EC50, cytotoxicity, A549 cells (drug alone, combination study) (human dysadherin [4]): 0.3 nM
- EC50, cytotoxicity (CellTiter-Glo cell viability), A375 cells (human dysadherin [5]): 0.4 nM
- EC50, cytotoxicity (CellTiter-Glo cell viability), A549 cells (human dysadherin [5]): 0.2 nM
- EC50, cytotoxicity (CellTiter-Glo cell viability), H460 cells (human dysadherin [5]): 0.3 nM
- EC50, cytotoxicity (CellTiter-Glo cell viability), H929 cells (human dysadherin [5]): 0.1 nM
- EC50, cytotoxicity (CellTiter-Glo cell viability), PANC cells (human dysadherin [5]): 0.3 nM
- EC50, in vitro activity against A549 cells (human dysadherin [6]): 1.9 nM

B3: M53 (antibody)
heavy: EVQLVESGGGLVQPKGTLKLSCAASGFSFNTHAMNWVRQAPGKSLEWVARTMSKSNNYATYYADSVKDRFIIRADDSQSMLYLQMNNLKTEDTAMYYCVRDDPKRGMDYWGQGTSVTVSSAKTTPPSVYPLAPGSAAQTNSMVTLGCLVKGYFPEPVTVTWNSGSLSSGVHTFPAVLQSDLYTLSSSVTVPSSTWPSETVTCNVAHPASSTKVDKKIE
light: GIVMSQSPSSLAVSVGEKVTMSCKPSQSLLYSRNQKIYLAWYQQKPGQSPKLLIYWASTRESGVPDRFTGSGSGTDFTLIISSVRAEDLAVYYCQQYYNYPLTFGAGTKLELKRADAAPTVSIFPPSSEQLTSGGASVVCFLNNFYPKDINVKWKIDGSERQNGVLNSWTDQDSKDSTYSMSSTLTLTKDEYERHNSYTCEATHKTSTSPIVKSFNR
- cytotoxicity of antibody alone [7]: inactive
- serum half-life of the antibody portion ([8]; 1 mg/kg tail vein): 11.9 days
- serum half-life of the antibody portion ([8]; 10 mg/kg tail vein): 10.3 days
- serum half-life of detectable (by antigen binding) antibody [9]: approximately 6 days
- EC50 (A375): > 2000 nM
- EC50 (PANC1): > 5000 nM
- EC50 (A549): > 5000 nM
